For this test, the target named is FITC-labeled porcine brain tubulin (porcine) (UniProt P02550). As to the kind of experiment: co-sedimentation.

Consider “FITC-labeled porcine brain tubulin (from UniProt P02550 1-451) (complex)”, for which the fluorescence intensity (B/A) of the precipitate, labeled tubulin alone (6:0) worked out at 27.5.

The values are drawn from publication PMC2113761.
